# Data reported in patent US20240190939A1 (SHATTUCK LABS, published 2024).
# T1: recombinant human PD-L2 (human, UniProt Q9BQ51 20-220)
# T1 sequence (looked up): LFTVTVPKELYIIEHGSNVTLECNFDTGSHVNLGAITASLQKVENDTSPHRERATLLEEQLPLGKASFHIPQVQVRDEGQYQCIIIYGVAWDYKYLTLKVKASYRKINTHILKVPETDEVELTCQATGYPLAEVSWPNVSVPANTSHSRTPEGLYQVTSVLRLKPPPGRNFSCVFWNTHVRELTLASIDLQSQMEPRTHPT
# Legend:
# [1] = biological target: T2, human PD-L1 on CHO-K1 cells (human, UniProt Q9NZQ7 19-290); assay: flow cytometry on CHO-K1 cells expressing human PD-L1
# T2 construct: whole, on cells; also called hPD-L1 engineered cell line; hPD-L1 over-expressing cell line
# Description: Cells were collected, washed, and stained with antibodies for the detection of the chimeric protein binding by flow cytometry.
# [2] = biological target: T1, recombinant human PD-L2; assay: biolayer interferometry (Octet), recombinant human PD-L2
# [3] = biological target: T3, human LTBR-His (human, UniProt P36941 31-227, limits assumed); assay: ELISA: hLTBR-Fc His Tag capture, 'hLIGHT Biotinylated' detection, streptavidin HRP
# T3 construct: also called hLTBR-His
# [4] = biological target: T4, hPDL1-Fc (human, UniProt Q9NZQ7 19-238); assay: Dual ELISA: hPDL1-Fc capture, hLTBR-His detection, 6x His HRP (signal needs both hPDL1-Fc and hLTBR-His bound)
# T4 construct: not shown: Fc, not identified
# Method: For each chimeric protein ELISAs were performed under the following conditions: Heavy+Light Chain captured and detected with Fc-HRP (FIG. 13A and FIG. 13B, top left), a murine LTBR-His captured and detected with an antibody directed to murine LIGHT (FIG. 13A, top right) or human LTBR-His captured and detected with biotinylated human LIGHT (FIG. 138, top right), and mPD-L1 captured and detected with an antibody directed to mLIGHT (FIG. 13A, bottom left; “Dual ELISA”) or hPDL1-Fc captured and detected with hLTBR-His/6×His-HRP (FIG. 13A, bottom left; “Dual ELISA”).
# [5] = biological target: T5, mouse PVR on CHO-K1 cells (mouse); assay: flow cytometry on CHO-K1 cells expressing murine PVR
# T5 construct: whole, on cells; also called CHOK1/PVR; mPVR engineered cell line
# [6] = biological target: T6, recombinant CD155; assay: ELISA: CD155/PVR capture, Fc-HRP detection
# T6 construct: also called CD155/PVR
# T2 sequence (Q9NZQ7 19-290): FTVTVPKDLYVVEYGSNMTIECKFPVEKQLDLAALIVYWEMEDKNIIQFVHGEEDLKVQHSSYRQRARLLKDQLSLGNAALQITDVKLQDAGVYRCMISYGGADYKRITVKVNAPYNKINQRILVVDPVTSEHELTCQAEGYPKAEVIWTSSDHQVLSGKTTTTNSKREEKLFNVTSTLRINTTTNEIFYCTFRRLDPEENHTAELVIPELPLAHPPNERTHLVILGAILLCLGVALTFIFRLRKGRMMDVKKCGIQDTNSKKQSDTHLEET
# T4 sequence (Q9NZQ7 19-238 limits assumed): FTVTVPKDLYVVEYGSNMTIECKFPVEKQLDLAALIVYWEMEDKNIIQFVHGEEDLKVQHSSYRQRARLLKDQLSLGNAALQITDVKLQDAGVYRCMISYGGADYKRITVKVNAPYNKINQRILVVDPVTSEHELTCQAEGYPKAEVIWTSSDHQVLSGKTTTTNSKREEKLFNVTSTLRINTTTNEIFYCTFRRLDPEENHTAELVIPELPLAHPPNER
# T3 sequence (P36941 31-227 limits assumed): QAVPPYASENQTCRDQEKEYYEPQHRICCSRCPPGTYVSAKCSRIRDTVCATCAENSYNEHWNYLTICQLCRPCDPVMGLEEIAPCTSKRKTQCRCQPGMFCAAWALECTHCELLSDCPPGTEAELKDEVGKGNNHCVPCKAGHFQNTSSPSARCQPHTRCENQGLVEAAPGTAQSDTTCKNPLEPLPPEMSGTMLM
EC50 [1] [nM],binding result [2],EC50 (read off the curve) [3] [nM],EC50 (read off the curve) [4] [nM],EC50 [5] [nM],EC50 (read off the curve) [6] [nM],Binder
48,binds,~20,~10,,,"human PD-1-Fc-LIGHT chimeric protein (Fc fusion, also called hPD-1-Fc-LIGHT) LDSPDRPWNPPTFSPALLVVTEGDNATFTCSFSNTSESFVLNWYRMSPSNQTDKLAAFPEDRSQPGQDCRFRVTQLPNGRDFHMSVVRARRNDSGTYLCGAISLAPKAQIKESLRAELRVTERRAEVPTAHPSPSPRPAGQFQSKYGPPCPPCPAPEFLGGPSVFLFPPKPKDQLMISRTPEVTCVVVDVSQEDPEVQFNWYVDGVEVHNAKTKPREEQFNSTYRVVSVLTVLHQDWLSGKEYKCKVSSKGLPSSIEKTISNATGQPREPQVYTLPPSQEEMTKNQVSLTCLVKGFYPSDIAVEWESNGQPENNYKTTPPVLDSDGSFFLYSRLTVDKSRWQEGNVFSCSVLHEALHNHYTQKSLSLSLGKIEGRMDLQLHWRLGEMVTRLPDGPAGSWEQLIQERRSHEVNPAAHLTGANSSLTGSGGPLLWETQLGLAFLRGLSYHDGALVVTKAGYYYIYSKVQLGGVGCPLGLASTITHGLYKRTPRYPEELELLVSQQSPCGRATSSSRVWWDSSFLGGVVHLEAGEKVVVRVLDERLVRLRDGTRSYFGAFMV"
,,,,215,~5,murine TIGIT-Fc-LIGHT chimeric protein (Fc fusion) chain 1: TIDTKRNISAEEGGSVILQCHFSSDTAEVTQVDWKQQDQLLAIYSVDLGWHVASVFSDRVVPGPSLGLTFQSLTMNDTGEYFCTYHTYPGGIYKGRIFLKVQESSDDRNGLAQFQTAPLG chain 2: LHQRLGDIVAHLPDGGKGSWEKLIQDQRSHQANPAAHLTGANASLIGIGGPLLWETRLGLAFLRGLTYHDGALVTMEPGYYYVYSKVQLSGVGCPQGLANGLPITHGLYKRTSRYPKELELLVSRRSPCGRANSSRVWWDSSFLGGVVHLEAGEEVVVRVPGNRLVRPRDGTRSYFGAFMV
